Reference: patent US20240199757A1

T1: murine NT5E expressed on 4T1 cells (murine) (UniProt Q61503)
T1 sequence (looked up): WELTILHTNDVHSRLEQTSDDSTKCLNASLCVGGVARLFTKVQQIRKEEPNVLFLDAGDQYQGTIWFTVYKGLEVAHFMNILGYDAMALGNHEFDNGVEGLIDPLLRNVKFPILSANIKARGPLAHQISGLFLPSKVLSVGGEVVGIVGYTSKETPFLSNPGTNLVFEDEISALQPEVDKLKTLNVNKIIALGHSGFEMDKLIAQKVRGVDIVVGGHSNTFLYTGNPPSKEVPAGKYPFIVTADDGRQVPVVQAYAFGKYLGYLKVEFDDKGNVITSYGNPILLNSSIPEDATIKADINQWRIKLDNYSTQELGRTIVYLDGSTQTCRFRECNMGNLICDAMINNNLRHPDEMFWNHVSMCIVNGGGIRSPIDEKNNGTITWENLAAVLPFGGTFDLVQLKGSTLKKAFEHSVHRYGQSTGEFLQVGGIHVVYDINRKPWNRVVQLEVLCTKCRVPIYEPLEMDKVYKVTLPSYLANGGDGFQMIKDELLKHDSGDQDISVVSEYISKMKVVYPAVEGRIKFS

T2: human NT5E expressed on MDA-MB-231 cells (human) (UniProt P21589)
T2 sequence (looked up): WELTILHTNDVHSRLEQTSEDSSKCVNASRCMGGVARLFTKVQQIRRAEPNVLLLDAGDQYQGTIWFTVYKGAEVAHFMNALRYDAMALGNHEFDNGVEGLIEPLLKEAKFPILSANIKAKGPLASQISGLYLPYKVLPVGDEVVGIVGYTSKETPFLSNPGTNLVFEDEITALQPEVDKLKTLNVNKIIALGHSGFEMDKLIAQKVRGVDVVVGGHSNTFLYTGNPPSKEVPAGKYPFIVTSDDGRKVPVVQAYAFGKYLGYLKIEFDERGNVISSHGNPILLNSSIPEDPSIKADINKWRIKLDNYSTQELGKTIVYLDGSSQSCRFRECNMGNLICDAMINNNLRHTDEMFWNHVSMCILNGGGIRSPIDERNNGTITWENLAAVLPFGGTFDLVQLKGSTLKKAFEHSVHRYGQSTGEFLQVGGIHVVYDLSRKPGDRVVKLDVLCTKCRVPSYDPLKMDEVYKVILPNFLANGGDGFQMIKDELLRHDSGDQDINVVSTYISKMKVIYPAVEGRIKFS


Legend:
[1] = target: T1, murine NT5E expressed on 4T1 cells (murine); test: cell-based or functional assay
[2] = target: T2, human NT5E expressed on MDA-MB-231 cells (human); test: cell-based or functional assay
[3] = target: hNT5EFF (F417A/F500A mutant of hNT5E) (human); test: DSF thermal shift, 1.5-fold molar excess of Fab, 1 mM ATP (hNT5EFF alone 47° C.)
[4] = target: hNT5EFF (F417A/F500A mutant of hNT5E) (human); test: DSF thermal shift, 1.5-fold molar excess of Fab, no ATP (hNT5EFF alone 47° C.)

Binder | IC50 of NT5E activity on 4T1 cells, with ATP [1] [nM] | IC50 of NT5E activity on MDA-MB-231 cells, no ATP [2] [nM] | IC50 of NT5E activity on MDA-MB-231 cells, with ATP [2] [nM] | TM of NT5E in the presence of the Fab [3] [° C.] | TM of NT5E in the presence of the Fab [4] [° C.]
1789 AM39 IgG (antibody, V domains shown) VH: EVQLVESGGGLVQPGGSLRLSCAASGFNVSYSSIHWVRQAPGKGLEWVASIRGAGSDTRYADSVKGRFTISADTSKNTAYLQMNSLRAEDTAVYYCARNYWGWYPFYYFAFDYWGQGTLVTVSS VL: DIQMTQSPSSLSASVGDRVTITCRASQSVSSAVAWYQQKPGKAPKLLIYSASSLYSGVPSRFSGSRSGTDFTLTISSLQPEDFATYYCQQGWDYPITFGQGTKVEIKR | 12.7 | 6.9 | 2.5 | – | –
1789 AM32 IgG (antibody, V domains shown) VH: EVQLVESGGGLVQPGGSLRLSCAASGFNVSYSSIHWVRQAPGKGLEWVARIRGNEGDTYYADSVKGRFTISADTSKNTAYLQMNSLRAEDTAVYYCARNYWGWYPFYYFAFDYWGQGTLVTVSS VL: DIQMTQSPSSLSASVGDRVTITCRASQSVSSAVAWYQQKPGKAPKLLIYSASSLYSGVPSRFSGSRSGTDFTLTISSLQPEDFATYYCQQGWDYPITFGQGTKVEIKR | 9.1 | 5.6 | 2.3 | – | –

The next lines start with the values.

IC50 of NT5E activity on 4T1 cells, with ATP [1] [nM] | IC50 of NT5E activity on MDA-MB-231 cells, no ATP [2] [nM] | IC50 of NT5E activity on MDA-MB-231 cells, with ATP [2] [nM] | TM of NT5E in the presence of the Fab [3] [° C.] | TM of NT5E in the presence of the Fab [4] [° C.] | Binder
– | – | – | 46 | 47 | 1789 Fab (Fab, V domains shown) VH: EVQLVESGGGLVQPGGSLRLSCAASGFNVSYSSIHWVRQAPGKGLEWVASISSSSGYTYYADSVKGRFTISADTSKNTAYLQMNSLRAEDTAVYYCARNYWGWYPFYYFAFDYWGQGTLVTV VL: DIQMTQSPSSLSASVGDRVTITCRASQSVSSAVAWYQQKPGKAPKLLIYSASSLYSGVPSRFSGSRSGTDFTLTISSLQPEDFATYYCQQGWDYPITFGQGTKVEIKR
8.8 | 5.4 | 1.9 | – | – | 1789 AM42 IgG (antibody, V domains shown) VH: EVQLVESGGGLVQPGGSLRLSCAASGFNVSYSSIHWVRQAPGKGLEWVAKIRGGHQDTHYADSVKGRFTISADTSKNTAYLQMNSLRAEDTAVYYCARNYWGWYPFYYFAFDYWGQGTLVTVSS VL: DIQMTQSPSSLSASVGDRVTITCRASQSVSSAVAWYQQKPGKAPKLLIYSASSLYSGVPSRFSGSRSGTDFTLTISSLQPEDFATYYCQQGWDYPITFGQGTKVEIKR
